Assay results: US5457092A, “Methods of promoting bone growth in mammals comprising administration of modified parathyroid hormone” (Gesellschaft fur Biotechnologische Forschung mbH (GBF), priority 1987, dated 1995)

Legend:
[1] = test system: osteoblast enriched rat embryo calvaria cell cultures; test: CK specific activity in rat embryo calvaria cell cultures; format: cell-based; conditions: for increase of CK activity (in words): treated for 24 h
Procedure: (§1) FIG. 10 is a graphical representation showing the dose dependent stimulation by bPTH (1-84) of osteoblast enriched rat embryo calvaria cell cultures. Experimental details for the determination of cyclic AMP (.quadrature.) (15 min after stimulation) and incorporation of [^3 H]thymidine into DNA ( ) and CK ( ) specific activity (24 h after stimulation) are given below. The results are means ±S.E.M., N≥5. In several cases the S.E.M. was less than the size of the symbol. Control values were: cyclic AMP, 25±5 pmol/mg of protein; DNA, 240±30 c.p.m./μg of DNA; CK, 200±20 nmol/min per mg of protein. Statistical significance of differences between treated and corresponding control groups by Student's T test: *P<0.05; **P<0.01.
(§2) Rat calvaria cultures were treated with fragments of PTH derived from the central portion of the molecule.

[2] = test system: rat organs (epiphysis, diaphysis, kidney); test: [3H]thymidine incorporation into DNA in rat organs after i.p. injection; format: in vivo
[3] = test system: ROS 17/2.8 osteoblast-like cells; test: DNA synthesis in ROS 17/2.8 osteoblast-like cells; format: cell-based, rat; conditions: control 392 ± 58 c.p.m./μg of DNA
[4] = test system: osteoblast enriched rat embryo calvaria cell cultures; test: Cyclic AMP production in rat embryo calvaria cell cultures; format: cell-based
Procedure: as §1, §2

[5] = test system: ROS 17/2.8 osteoblast-like cells; test: Cyclic AMP production in ROS 17/2.8 osteoblast-like cells; format: cell-based, rat; conditions: for Cyclic AMP, effect of fragment (experimental value/control value): control 29 ± 5.2 pmol/mg of protein
Procedure: When cultures of the widely used model for osteoblasts, the osteoblast-likeclone of rat osteosarcoma, ROS 17/2.8 (Endocrinology (Baltimore), 107 (1980) 1494-1503=12; Majeska et al.), were incubated with full-length PTH and PTH fragments (Table 4), cyclic AMP production was stimulated only by bPTH(1-84) and hPTH(1-34), whereas hPTH(25-39), hPTH(27-48), hPTH(28-48) and hPTH(34-47) were ineffective.

[6] = test system: rat organs (epiphysis, diaphysis, kidney); test: [3H]thymidine incorporation into DNA in rat organs after i.p. injection; format: in vivo; remark: listed apart in the source
Procedure: FIG. 12 is a graph showing the time course of stimulation by hPTH (1-34) of DNA synthesis in rat organs. Female rats (20-25 days old) were injected i.p. with hPTH-(1-34) (2 μg/rat). At 2 h before the times indicated, the rats were killed and organs were removed and incubated in 2 ml of Dulbecco's modified Eagle's medium containing 5 μl of [^3 H]thymidine. (Amersham: 5 Ci/mmol) for 2 h, then washed with medium and homogenized in deionized distilled water. The total uptake of [^3 H]thymidine and acid-insoluble radioactivity was measured, as well as DNA content, as described below. , Diaphysis; O, epiphysis; Δ; kidney. P<0.01 versus controls.
The pieces were then incubated for 2 h more (the time indicated in FIG. 12) with [^3 H]thymidine (5 μci/ml; 5 Ci/mmol) at 37° C. in Dulbecco's modified Eagle's medium under an atmosphere Of […] /95% air. Total [^3 H]thymidine uptake and incorporation into trichloroacetic acid-insoluble material was measured as described in Biochem. J., 214 (1983) 293-298 (16; Somjen et al.). At no time including the 22 24 h pulse, was there any significant change in the total uptake of [^3 H]thymidine which reflects changes in the thymidine pool which, in turn, could account for changes in incorporation. DNA was determined by the Burton method; cf. Biochem. J., 62 (1956) 315-323 (17; Burton).
To corroborate that under the circumstances of these experiments the increase in CK specific activity in bone is indeed a valid marker of cell proliferation, changes in DNA synthesis were measured by [^3 H]thymidine incorporation; cf. Biochem. J., 272 (1990) 781-785 (18; Somjen et al.). The earliest time at which PTH increased [^3 H]thymidine incorporation was determined by in-jecting rats with an optimal dose of 2 μp of PTH(1-34)/rat, equivalent to 13 nM (FIG. 14) and measuring 2 h pulses of [^3 H)thymidine incorporation into DNA (FIG. 12).

[7] = test system: osteoblast enriched rat embryo calvaria cell cultures; test: DNA synthesis ([3H]thymidine incorporation) in rat embryo calvaria cell cultures; format: cell-based
Procedure: as §1

[8] = test system: ROS 17/2.8 osteoblast-like cells; test: CK specific activity in ROS 17/2.8 osteoblast-like cells; format: cell-based, rat; conditions: control 698 ± 70 nmol/min per mg of protein
[9] = test system: rat organs (epiphysis, diaphysis, kidney); test: CK specific activity in rat organs after i.p. injection; format: in vivo; conditions: i.p., 4 h later
Procedure: FIG. 13 is a graph showing the time-dependent stimulation by hPTH (28-48) of CK specific activity in rat organs. Female rats (20-25 days old) were injected i.p. with hPTH-(28-48) (1.25 μg/rat). Experimental details are as described for FIG. 10. (a) Diaphysis, (b) epiphysis, (c) kidney. *P<0.05, **P<0.01 versus controls.
FIG. 14 is a graph showing the dose-dependent stimulation of CK specific activity by hPTH (1-34) in rat organs. Female rats (20-25 days old) were injected i.p. with hPTH-(1-34). At 4 h later, rats were killed and extracts were prepared and assayed as described below. Experimental details are as described for FIG. 10 (a) Diaphysis, (b) epiphysis, (c) kidney. *P<0.05, ** P<0.01 versus controls.
FIG. 15 is a graph showing the dose-dependent stimulation of CK specific activity by hPTH (28-48) in rat organs. Female rats (20-25 days old) were injected i.p. with hPTH-(28-48). Experimental details are as described for FIG. 13 (a) Diaphysis, (b) epiphysis, (c) kidney. *P<0.05, **P<0.01 versus controls.
FIG. 16 is a graph showing the […] stimulation by bPTH (1-84) of CK specific activity in rat organs. Female rats (20-25 days old) were injected i.p. with bPTH-(1-84) (3.5 μg/rat). At the times indicated, the rats were killed and the diaphyses (a) and epiphyses (b) of long bones as well as the kidneys (c) were collected and homogenized. Extracts were prepared and assayed as described below. Results are means ±S.E.M for π=5. Statistical significance of differences between treated and control groups by Student's T test: *P<0.05; **P<0.01. Note that the activity scales differ for different organs.
Kidneys, tibia and femur were excised; the epiphyses or diaphyses of the long bones were collected and washed thoroughly with cold 0.9% NaCl. The bones were split open lengthwise and the marrow was scraped out. Organs were homogenized in ice-cold buffer containing 50 mM-Tris/HCl (pH 6.8), 5 mH-magnesium acetate. 2.5 mM-dithiothreitol, 0.4 mM-EDTA and 250 mM-sucrose using a Polytron homogenizer in 10 s bursts with intervening cooling periods. Supernatant extracts were obtained by centrifugation at 12000 g for 5 min at 4° C. CK activity was measured at 30° C. in a Gilford 250 automatic recording spectrophotometer at 340 nm using a coupled assay for ATP, in 0.5 ml of incubation mixture containing 50 mM-imidazole acetate buffer (pH 6.7), 25 mM-phosphocreatine, 20 mM-N-acetylcysteine, 20 mM-D-glucose, 10 mM-magnesium acetate, 5 mM-EDTA, 2 mM-ADP, 2 mM-NAD+, 2 mM-dithiothreitol, 50 μM-diadenosine pentaphosphate (adenylate kinase inhibitor), 5 μg of bovine serum albumin. 1.2 units of glucose-6-phosphate dehydrogenase and 0.8 units of hexokinase. Protein was determined by the Coomassie Brilliant Blue dye-binding method, with bovine serum albumin as the standard.

[10] = test system: rat epiphysial cartilage cell cultures; test: DNA synthesis in rat epiphysial cartilage cell cultures; format: cell-based; conditions: 10 nM; control 350 ± 25
[11] = test system: rat epiphysial cartilage cell cultures; test: CK specific activity in rat epiphysial cartilage cell cultures; format: cell-based
Procedure: To compare the stimulations seen in osteoblast-like cells (FIGS. 10 and 11) with PTH effects in a cartilage system, cultures of rat epiphysial cartilage cells were incubated with full-length PTH and selected PTH fragments (Table 3). CK activity was stimulated by bPTH(1-84) and hPTH(28-48) but not by hPTH(25-39) or hPTH(34-47). […] The comparison between the complete molecule and the mid-regional fragment hPTH (28-48) is similar to but not identical with the results obtained for calvaria cell cultures (FIGS. 10 and 11) and in the chick sternum chondrocyte system; cf. Biochem. J., 252 (1988) 263-268 (11; Farndale et al.),

CC[C@H](C)[C@H](NC(=O)[C@H](CCC(=O)O)NC(=O)[C@H](CO)NC(=O)[C@@H](NC(=O)[C@@H](N)CO)C(C)C)C(=O)N[C@@H](CCC(N)=O)C(=O)N[C@@H](CC(C)C)C(=O)N[C@@H](CCSC)C(=O)N[C@@H](Cc1c[nH]cn1)C(=O)N[C@@H](CC(N)=O)C(=O)N[C@@H](CC(C)C)C(=O)NCC(=O)N[C@@H](CCCCN)C(=O)N[C@@H](Cc1c[nH]cn1)C(=O)N[C@@H](CC(C)C)C(=O)N[C@@H](CC(N)=O)C(=O)N[C@@H](CO)C(=O)N[C@@H](CCSC)C(=O)N[C@@H](CCC(=O)O)C(=O)N[C@@H](CCCNC(=N)N)C(=O)N[C@H](C(=O)N[C@@H](CCC(=O)O)C(=O)N[C@@H](Cc1c[nH]c2ccccc12)C(=O)N[C@@H](CC(C)C)C(=O)N[C@@H](CCCNC(=N)N)C(=O)N[C@@H](CCCCN)C(=O)N[C@@H](CCCCN)C(=O)N[C@@H](CC(C)C)C(=O)N[C@@H](CCC(N)=O)C(=O)N[C@@H](CC(=O)O)C(=O)N[C@H](C(=O)N[C@@H](Cc1c[nH]cn1)C(=O)N[C@@H](CC(N)=O)C(=O)N[C@@H](Cc1ccccc1)C(=O)O)C(C)C)C(C)C [hPTH(1-34)]
increase of CK activity (in words) [1]: maximally active | DNA synthesis in the diaphysis and the epiphysis at 24 h (in words) ([2]; 2 μg/rat, 24 h): significant increase | [^3 H]Thymidine incorporation, effect of fragment (experimental value/control value) ([3]; 40 nM): 2.06 ± 0.09 | stimulation of cyclic AMP production (in words) ([4]; treated for 15 min): able to stimulate cyclic AMP formation | stimulation of cyclic AMP production (in words) [5]: stimulated | Cyclic AMP, effect of fragment (experimental value/control value) ([5]; 40 nM): 4.67 ± 0.09 | DNA synthesis in the kidney over time (in words) ([6]; 2 μg/rat, equivalent to 13 nM, 2 h pulses): no increase in DNA synthesis at any time | DNA synthesis in the diaphysis and the epiphysis at 4 or 16 h (in words) ([6]; 2 μg/rat, 4 or 16 h): no change | stimulation of DNA synthesis (in words) [7]: maximal | CK specific activity, effect of fragment (experimental value/control value) ([8]; 40 nM): 1.83 ± 0.09 | dose of maximal effect on CK specific activity [9]: 2 μg/rat | dose giving a significant increase in CK specific activity in all organs ([9]; diaphysis, epiphysis, kidney): 0.4 μg/rat

B1: bPTH(1-84): full-length (complete) parathyroid hormone, bovine source; comparative example (protein, UniProt P01268 32-115, looked up)
Parathyroid hormone: AVSEIQFMHNLGKHLSSMERVEWLRKKLQDVHNFVALGASIAYRDGSSQRPRKKEDNVLVESHQKSLGEADKADVDVLIKAKPQ
modifications: Parathyroid hormone
[^3 H]Thymidine incorporation into DNA [10]: 556 ± 50 c.p.m./plate | stimulation of CK activity (in words) [11]: stimulated | CK specific activity ([11]; 10 nM, control 225 ± 32): 389 ± 39 nmol/min per mg of protein | CK specific activity, effect of fragment (experimental value/control value) ([1]; 100 nM, 24 h, control 457 ± 46 nmol/min per mg of protein): 2.27 ± 0.09 | increase of CK activity (in words) [1]: maximally active | [^3 H]thymidine incorporation into DNA, Kidney ([2]; rat, 22-24 h after injection of 3.5 μg, control 9.0 ± 2.1): 11.8 ± 2.4 c.p.m./pg of DNA | [^3 H]thymidine incorporation into DNA, Diaphysis ([2]; rat, 22-24 h after injection of 3.5 μg, control 24.1 ± 3.8): 43.4 ± 4.7 c.p.m./pg of DNA | [^3 H]thymidine incorporation into DNA, Epiphysis ([2]; rat, 22-24 h after injection of 3.5 μg, control 25.8 ± 5.2): 40.7 ± 3.3 c.p.m./pg of DNA | [^3 H]Thymidine incorporation, effect of fragment (experimental value/control value) ([3]; 10 nM): 1.71 ± 0.18 | Cyclic AMP concentration, effect of fragment (experimental value/control value) ([4]; 100 nM, 15 min, control 29 ± 2.9 pmol/mg of protein): 3.74 ± 0.30 | stimulation of cyclic AMP production (in words) [5]: stimulated | Cyclic AMP, effect of fragment (experimental value/control value) ([5]; 10 nM): 4.60 ± 0.10 | stimulation of DNA synthesis in the kidney (in words) ([6]; 22-24 h after injection): no significant stimulation | stimulation of DNA synthesis (in words) [7]: maximal | [3H)Thymidine incorporation, effect of fragment (experimental value/control value) ([7]; 100 nM, 24 h, control 624 ± 73 c.p.m./μg of DNA): 2.61 ± 0.11 | CK specific activity, effect of fragment (experimental value/control value) ([8]; 10 nM): 1.92 ± 0.11
